Paper PMC3634489

What was measured:
[1] = target: 2A1 IgA of the combination HCα1-LCλ-JC (heavy chain α1 without KDEL, λ light chain, co-expressed J chain) (human) (UniProt P01591); assay: ELISA
[2] = target: 2A1 IgA of the combination HCα1-LCλ-JC (heavy chain α1 without KDEL, λ light chain, co-expressed J chain) (human) (UniProt P01591); assay: ELISA; […]) capture antibody, […]
[3] = target: 2A1 IgA of the combination HCα1-LCλ-JC (heavy chain α1 without KDEL, λ light chain, co-expressed J chain) (human) (UniProt P01591); assay: SEC

UniProt P01591, sequence (P01591 whole entry, looked up): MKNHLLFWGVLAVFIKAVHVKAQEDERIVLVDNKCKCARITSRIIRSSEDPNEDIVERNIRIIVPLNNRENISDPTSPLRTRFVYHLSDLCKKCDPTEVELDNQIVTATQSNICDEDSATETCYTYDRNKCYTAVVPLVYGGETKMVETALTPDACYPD

- percent of total HC in the sIgA complex [1]: 21%
- percent of total HC in the sIgA complex [2]: > 33%
- percent of total IgA content as sIgA [3]: 20%
Substance: secretory component with a C-terminal KDEL signal (SCkdel) (from UniProt P01833 19-638) (domain or fragment)
